The record followed here is US6479237 (INSTITUT NATIONAL DE LA SANTE ET DE LA RECHERCHE MEDICALE …, dated 2002).

The labels stand for the following.
B1: VP16 alone (not containing any fused protein) (other)
chain: STAPPTDVSLGDELHLDGEDVAMAHADALDDFDLDMLGDGDSPGPGFTPHDSAPYGALDMADFEFEQMFTDALGIDEYGG
notes: Negative control
B2: LexA-Cdk7 (other, UniProt P0A7C2 1-202, looked up)
chain: MKALTARQQEVFDLIRDHISQTGMPPTRAEIAQRLGFRSPNAAEEHLKALARKGVIEIVSGASRGIRLLQEEEEGLPLVGRVAAGEPLLAQQHIEGHYQVDPSLFKPNADFLLRVSGMSMKDIGIMDGDLLAVHKTQDVRNGQVVVARIDDEVTVKRLKKQGNKVELLPENSEFKPIVVDLRQQSFTIEGLAVGVIRNGDWLMALDVKSRAKRYEKLDFLGEGQFATVYKARDKNTNQIVAIKKIKLGHRSEAKDGINRTALREIKLLQELSHPNIIGLLDAFGHKSNISLVFDFMETDLEVIIKDNSLVLTPSHIKAYMLMTLQGLEYLHQHWILHRDLKPNNLLLDENGVLKLADFGLAKSFGSPNRAYTHQVVTRWYRAPELLFGARMYGVGVDMWAVGCILAELLLRVPFLPGDSDLDQLTRIFETLGTPTEEQWPDMCSLPDYVTFKSFPGIPLHHIFSAAGDDLLDLIQGLFLFNPCARITATQALKMKYFSNRPGPTPGCQLPRPNCPVETLKEQSNPALAIKRKRTEALEQGGLPKKLIF
notes: Fusion protein expressed in yeast L40 from the ADH constitutive promoter; also called Lex-Cdk7
B3: VP16-MAT1 (other)
chain: STAPPTDVSLGDELHLDGEDVAMAHADALDDFDLDMLGDGDSPGPGFTPHDSAPYGALDMADFEFEQMFTDALGIDEYGGMDDQGCPRCKTTKYRNPSLKLMVNVCGHTLCESCVDLLFVRGAGNCPECGTPLRKSNFRVQLFEDPTVDKEVEIRKKVLKIYNKREEDFPSLREYNDFLEEVEEIVFNLTNNVDLDNTKKKMEIYQKENKDVIQKNKLKLTREQEELEEALEVERQENEQRRLFIQKEEQLQQILKRKNKQAFLDELESSDLPVALLLAQHKDRSTQLEMQLEKPKPVKPVTFSTGIKMGQHISLAPIHKLEEALYEYQPLQIETYGPHVPELEMLGRLGYLNHVRAASPQDLAGGYTSSLACHRALQDAFSGLFWQPS
B4: VP16 fused with p44 (other)
chain: MDEEPERTKRWEGGYERTWEILKEDESGSLKATIEDILFKAKRKRVFEHHGQVRLGMMRHLYVVVDGSRTMEDQDLKPNRLTCTLKLLEYFVEEYFDQNPISQIGIIVTKSKRAEKLTELSGNPRKHITSLKKAVDMTCHGEPSLYNSLSIAMQTLKHMPGHTSREVLIIFSSLTTCDPSNIYDLIKTLKAAKIRVSVIGLSAEVRVCTVLARETGGTYHVILDESHYKELLTHHVSPPPASSSSECSLIRMGFPQHTIASLSDQDAKPSFSMAHLDGNTEPGLTLGGYFCPQCRAKYCELPVECKICGLTLVSAPHLARSYHHLFPLDAFQEIPLEEYNGERFCYGCQGELKDQHVYVCAVCQNVFCVDCDVFVHDSLHCCPGCIHKIPAPSGV
notes: One of the five TFIIH core sub-units put into pVP16 as specificity controls
B5: VP16 fused with p34 (other)
chain: MVSDEDELNLLVIVVDANPIWWGKQALKESQFTLSKCIDAVMVLGNSHLFMNRSNKLAVIASHIQESRFLYPGKNGRLGDFFGDPGNPPEFNPSGSKDGKYELLTSANEVIVEEIKDLMTKSDIKGQHTETLLAGSLAKALCYIHRMNKEVKDNQEMKSRILVIKAAEDSALQYMNFMNVIFAAQKQNILIDACVLDSDSGLLQQACDITGGLYLKVPQMPSLLQYLLWVFLPDQDQRSQLILPPPVHVDYRAACFCHRNLIEIGYVCSVCLSIFCNFSPICTTCETAFKISLPPVLKAKKKKLKVSA
notes: as for B4

The target in assay [1] is B2. Put plainly: yeast three-hybrid (L40), LexA-Cdk7 with Cyclin H expressed; growth test and β-galactosidase test.
The next assay has as its target T1, VP16 fused with XPB (UniProt P19447 1-782).
T1 construct: One of the five TFIIH core sub-units put into pVP16 as specificity controls
Described as above.

A further assay addresses T2, VP16 fused with XPD (UniProt P18074 1-760).
T2 construct: One of the five TFIIH core sub-units put into pVP16 as specificity controls
The assay is described as above.

Assay [2] concerns the target B2. Description: cell-based or functional assay.

Where only a bound is given, the exact number is not on record here.

T1 sequence (P19447 whole entry, the tested form may be a part): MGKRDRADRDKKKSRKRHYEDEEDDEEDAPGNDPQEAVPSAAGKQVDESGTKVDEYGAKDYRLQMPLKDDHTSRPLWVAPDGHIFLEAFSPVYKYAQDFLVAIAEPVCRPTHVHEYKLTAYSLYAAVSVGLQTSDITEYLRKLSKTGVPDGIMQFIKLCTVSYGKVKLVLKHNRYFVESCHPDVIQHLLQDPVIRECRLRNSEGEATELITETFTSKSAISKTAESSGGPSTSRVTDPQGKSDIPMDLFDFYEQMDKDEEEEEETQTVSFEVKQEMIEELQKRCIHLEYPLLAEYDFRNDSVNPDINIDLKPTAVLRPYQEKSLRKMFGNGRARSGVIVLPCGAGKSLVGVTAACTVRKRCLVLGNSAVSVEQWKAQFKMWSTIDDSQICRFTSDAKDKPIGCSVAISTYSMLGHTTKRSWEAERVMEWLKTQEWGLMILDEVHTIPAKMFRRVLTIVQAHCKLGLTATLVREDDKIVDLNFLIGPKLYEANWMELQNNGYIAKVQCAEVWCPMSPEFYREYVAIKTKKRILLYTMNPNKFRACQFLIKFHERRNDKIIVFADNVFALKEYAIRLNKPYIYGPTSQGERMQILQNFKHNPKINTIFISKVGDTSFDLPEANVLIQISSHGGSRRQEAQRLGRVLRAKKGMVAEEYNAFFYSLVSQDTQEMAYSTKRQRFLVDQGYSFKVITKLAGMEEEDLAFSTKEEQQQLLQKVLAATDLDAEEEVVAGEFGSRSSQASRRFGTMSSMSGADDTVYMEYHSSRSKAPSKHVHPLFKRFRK

As for B1, in the assay with LexA-Cdk7 [1], the binding result is given as “no binding”.

As for B2, the binding result with VP16 fused with XPB and with VP16 fused with XPD was “no binding” throughout.

For B3, in the assay with LexA-Cdk7 [2], the “inhibition of the β-Gal activity by methionine (repression of Cyclin H)” value was greater than 6 fold.

Regarding B4, the binding result in the assay with LexA-Cdk7 [1] is “no binding”.

Take B5: the binding result with LexA-Cdk7 [1] is “no binding”.
